Measurements as given in PMC9526445.

Molecular target: SpPks1 (sea urchin polyketide synthase, Strongylocentrotus purpuratus) (Strongylocentrotus purpuratus)
Assay: SEC

Substance: SpPks1 (sea urchin polyketide synthase, Strongylocentrotus purpuratus) (enzyme)
- stoichiometry N: 2
